The values that follow come from publication doi:10.1101/2023.01.26.525693.

Assay [1] concerns the target MDM2_(D.rerio) SWIB domain (zebra fish (Danio rerio)). Nature of the assay: stopped-flow spectroscopy.
In assay [2] the target is MDM2_(L.camtschaticum) SWIB domain (arctic lamprey (Lethenteron camtschaticum)). The assay is described as follows: fluorescence polarisation. (In general: Fluorescence polarisation rises when a labelled molecule tumbles more slowly, as on binding a larger partner.)
The target in assay [3] is MDM2_(M.trossulus) SWIB domain (bay mussel (Mytilus trossulus)). Nature of the assay: fluorescence polarisation.

What is called Kd is a measure of binding affinity in units of concentration. Read a high Kd as weaker binding.

In assay [1], p53TAD_(D.rerio)[14–27] (peptide) had a Kd of 1900 nM.
p53TAD_(D.rerio)^N26L (peptide) returned a Kd in assay [1] of 340 nM.
As to p53TAD_(D.rerio)^insertT[18] (peptide), the Kd in assay [1] is 2300 nM.
Substance p53TAD_(L.camtschaticum) (peptide) registered a dissociation constant (Kd) in assay [2] of 250000 nM.
In the case of p53TAD_(M.trossulus) (peptide), the Kd in assay [3] came to 15000 nM.
In turn, p73TAD_(D.rerio) (peptide) showed a Kd in assay [1] of 120 nM.
